Test [1] deals with Mouse EphA2 (Ecto), C-terminal polyHis (Mouse) (UniProt Q03145). The experiment in a line: FP competition against Reference Compound C (Study 2).
The target of test [2] is Human EphA2, biotinylated (in house) (Human) (UniProt P29317). The experiment in a line: SPR, biotinylated human EphA2 on streptavidin.
Test [3] deals with Rat EphA2, biotinylated (in house) (Rat) (UniProt D3ZBN3). Put plainly: SPR, biotinylated rat EphA2 on streptavidin.
For test [4], the target named is Mouse EphA2 Fc fusion (Mouse) (UniProt Q03145). The experiment in a line: SPR, mouse EphA2-Fc captured by anti-human IgG. For orientation: SPR reads the build-up and loss of mass on a sensor chip optically.
Mouse EphA2 Fc fusion (Mouse), sequence (Q03145 26-535 limits assumed): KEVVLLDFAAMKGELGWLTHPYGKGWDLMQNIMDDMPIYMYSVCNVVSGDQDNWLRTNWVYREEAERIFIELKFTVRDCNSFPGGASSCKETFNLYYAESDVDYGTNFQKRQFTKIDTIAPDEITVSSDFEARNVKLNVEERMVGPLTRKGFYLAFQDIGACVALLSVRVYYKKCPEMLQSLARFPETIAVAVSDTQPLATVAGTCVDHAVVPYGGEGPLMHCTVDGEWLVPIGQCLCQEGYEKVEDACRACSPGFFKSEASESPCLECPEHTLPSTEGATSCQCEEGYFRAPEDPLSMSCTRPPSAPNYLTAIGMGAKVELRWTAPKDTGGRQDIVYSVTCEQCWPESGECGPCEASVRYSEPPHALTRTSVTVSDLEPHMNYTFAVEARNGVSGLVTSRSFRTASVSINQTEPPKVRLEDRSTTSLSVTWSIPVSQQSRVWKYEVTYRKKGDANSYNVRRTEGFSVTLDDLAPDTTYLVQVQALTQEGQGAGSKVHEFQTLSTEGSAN

Mouse EphA2 (Ecto), C-terminal polyHis (Mouse), sequence (Q03145 26-538): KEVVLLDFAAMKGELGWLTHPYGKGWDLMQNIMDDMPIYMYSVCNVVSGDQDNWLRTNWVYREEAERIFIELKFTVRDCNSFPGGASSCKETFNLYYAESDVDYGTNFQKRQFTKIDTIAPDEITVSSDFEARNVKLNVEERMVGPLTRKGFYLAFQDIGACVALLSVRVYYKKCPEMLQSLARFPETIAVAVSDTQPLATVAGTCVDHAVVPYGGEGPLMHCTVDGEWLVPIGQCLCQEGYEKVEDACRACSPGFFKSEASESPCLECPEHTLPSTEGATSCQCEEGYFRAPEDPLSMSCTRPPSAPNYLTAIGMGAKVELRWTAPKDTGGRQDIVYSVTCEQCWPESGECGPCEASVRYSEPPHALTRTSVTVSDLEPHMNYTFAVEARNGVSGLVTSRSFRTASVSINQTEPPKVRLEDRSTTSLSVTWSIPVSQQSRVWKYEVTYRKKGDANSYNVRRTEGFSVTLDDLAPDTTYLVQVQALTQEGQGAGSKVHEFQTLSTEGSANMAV

Take BCY6136 (peptide): the Ki (usually the equilibrium dissociation constant of an inhibitor or competing ligand from its target) in test [1] worked out at 5.5 nM. For the same substance, the values for the Kd in test [2], in test [3] and in test [4] were 1.17 nM, 2.96 nM and 2.53 nM, respectively. Besides, the t1/2 came out at 10 min in test [2], 12.6 min in test [3] and 10.4 min in test [4].

Source of the values: patent US20190184025A1.
